Target: T1, szz-tagged mutant Rrp44-cat protein (S. cerevisiae, UniProt Q08162 1-1001, D551N)
T1 sequence (looked up): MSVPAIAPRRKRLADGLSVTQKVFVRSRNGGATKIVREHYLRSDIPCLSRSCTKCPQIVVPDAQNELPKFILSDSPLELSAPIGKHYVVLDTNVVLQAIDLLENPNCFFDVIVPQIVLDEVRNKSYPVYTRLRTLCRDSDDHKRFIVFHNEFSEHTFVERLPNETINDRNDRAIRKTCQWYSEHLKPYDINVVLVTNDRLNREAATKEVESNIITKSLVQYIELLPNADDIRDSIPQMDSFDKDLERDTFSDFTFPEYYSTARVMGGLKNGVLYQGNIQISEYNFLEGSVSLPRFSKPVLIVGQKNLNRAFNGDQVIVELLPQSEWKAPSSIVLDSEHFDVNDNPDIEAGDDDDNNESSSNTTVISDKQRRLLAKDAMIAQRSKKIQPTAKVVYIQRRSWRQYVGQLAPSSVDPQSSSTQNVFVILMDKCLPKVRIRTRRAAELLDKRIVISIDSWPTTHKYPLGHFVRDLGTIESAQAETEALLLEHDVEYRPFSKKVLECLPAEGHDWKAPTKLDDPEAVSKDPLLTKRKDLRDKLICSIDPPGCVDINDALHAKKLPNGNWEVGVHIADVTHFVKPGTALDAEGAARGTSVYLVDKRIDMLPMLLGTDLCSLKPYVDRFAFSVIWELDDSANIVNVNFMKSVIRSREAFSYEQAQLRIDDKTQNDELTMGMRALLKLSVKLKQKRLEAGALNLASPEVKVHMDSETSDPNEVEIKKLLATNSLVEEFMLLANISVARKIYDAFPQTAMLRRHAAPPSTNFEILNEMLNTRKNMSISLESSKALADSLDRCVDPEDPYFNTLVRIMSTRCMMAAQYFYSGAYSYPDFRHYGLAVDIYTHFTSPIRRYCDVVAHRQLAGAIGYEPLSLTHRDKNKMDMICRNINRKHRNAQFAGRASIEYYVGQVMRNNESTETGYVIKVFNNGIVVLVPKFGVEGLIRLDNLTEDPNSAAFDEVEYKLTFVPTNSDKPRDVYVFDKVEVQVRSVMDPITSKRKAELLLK
Assay: co-IP

fold recovered against wild-type Rrp44-szz: ~2 fold
B1: Rrp6 (natural protein, UniProt Q12149 1-733, looked up)
chain: MTSENPDVLLSRVINVVRAASSLASQDVDFYKNLDRGFSKDLKSKADKLADMANEIILSIDEHHESFELKEEDISDLWNNFGNIMDNLLEMSDHSLDKLNCAINSKSRGSDLQYLGEFSGKNFSPTKRVEKPQLKFKSPIDNSESHPFIPLLKEKPNALKPLSESLRLVDDDENNPSHYPHPYEYEIDHQEYSPEILQIREEIPSKSWDDSVPIWVDTSTELESMLEDLKNTKEIAVDLEHHDYRSYYGIVCLMQISTRERDYLVDTLKLRENLHILNEVFTNPSIVKVFHGAFMDIIWLQRDLGLYVVGLFDTYHASKAIGLPRHSLAYLLENFANFKTSKKYQLADWRIRPLSKPMTAYARADTHFLLNIYDQLRNKLIESNKLAGVLYESRNVAKRRFEYSKYRPLTPSSEVYSPIEKESPWKILMYQYNIPPEREVLVRELYQWRDLIARRDDESPRFVMPNQLLAALVAYTPTDVIGVVSLTNGVTEHVRQNAKLLANLIRDALRNIKNTNEEATPIPSSETKADGILLETISVPQIRDVMERFSVLCNSNISKSRAKPVTNSSILLGKILPREEHDIAYSKDGLPNKVKTEDIRIRAQNFKSALANLEDIIFEIEKPLVVPVKLEEIKTVDPASAPNHSPEIDNLDDLVVLKKKNIQKKQPAKEKGVTEKDAVDYSKIPNILSNKPGQNNRQQKKRRFDPSSSDSNGPRAAKKRRPAAKGKNLSFKR
